Source: PMC12141631
Read-outs that look alike come from different tables or passages of the source.

Legend:
Assay in all cases: cryo-EM structure
[1] = molecular target: human glycine receptor β subunit, βem construct (human)
[2] = molecular target: human glycine receptor β subunit, βem construct (human); remark: listed apart in the source
[3] = molecular target: human glycine receptor β subunit, βem construct (human); remark: listed apart in the source

Binder	stoichiometry N [1]	stoichiometry N [2]	stoichiometry N [3]
human glycine receptor α3 subunit, α3em construct (receptor) ARSRSAPMSPSDFLDKLMGRTSGYDARIRPNFKGPPVNVTCNIFINSFGSIAETTMDYRVNIFLRQKWNDPRLAYSEYPDDSLDLDPSMLDSIWKPDLFFANEKGANFHEVTTDNKLLRIFKNGNVLYSIRLTLTLSCPMDLKNFPMDVQTCIMQLESFGYTMNDLIFEWQDEAPVQVAEGLTLPQFLLKEEKDLRYCTKHYNTGKFTCIEVRFHLERQMGYYLIQMYIPSLLIVILSWVSFWINMDAAPARVALGITTVLTMTTQSSGSRASLPKVSYVKAIDIWMAVCLLFVFSALLEYAAVNFVSRQHKELLRFRRKRKNKTEAFDMDDEVRESRFSFTAYGMGPCLQAKDGMTPKGPNHPVQVMPKSPDEMRKVFIDRAKKIDTISRACFPLAFLIFNIFYWVIYKILRHEDIHQQQD	4 α3 per β	4 α3 per β	–
human glycine receptor α3 subunit, α3S346Eem construct (phosphorylation mimetic) (receptor) ARSRSAPMSPSDFLDKLMGRTSGYDARIRPNFKGPPVNVTCNIFINSFGSIAETTMDYRVNIFLRQKWNDPRLAYSEYPDDSLDLDPSMLDSIWKPDLFFANEKGANFHEVTTDNKLLRIFKNGNVLYSIRLTLTLSCPMDLKNFPMDVQTCIMQLESFGYTMNDLIFEWQDEAPVQVAEGLTLPQFLLKEEKDLRYCTKHYNTGKFTCIEVRFHLERQMGYYLIQMYIPSLLIVILSWVSFWINMDAAPARVALGITTVLTMTTQSSGSRASLPKVSYVKAIDIWMAVCLLFVFSALLEYAAVNFVSRQHKELLRFRRKRKNKTEAFDMDDEVREERFSFTAYGMGPCLQAKDGMTPKGPNHPVQVMPKSPDEMRKVFIDRAKKIDTISRACFPLAFLIFNIFYWVIYKILRHEDIHQQQD	4 α3 per β	–	4 α3 per β
